The results in this text go back to FireProtDB (doi:10.1016/j.jmb.2009.07.074).

The conditions of this series: Rhodopseudomonas palustris (strain ATCC BAA-98 / CGA009); pH 6.5; 25 °C; GdnHCl; CD; MES 20 mM; NaCl 40 mM; whole UniProt chain shown.

B1: Cytochrome c' wild type, P00149 (protein)
chain: MKLRIATIAGLVVLGSGFAVAQTDVIAQRKAILKQMGEATKPIAAMLKGEAKFDQAVVQKSLAAIADDSKKLPALFPADSKTGGDTAALPKIWEDKAKFDDLFAKLAAAATAAQGTIKDEASLKANIGGVLGNCKSCHDDFRAKKS
As for B1, the denaturant m value was found to be 5.12 kcal/mol/M, the “denaturant midpoint (higher = more stable)” value was 1.71 M and the unfolding free energy turned out to be 8.77 kcal/mol.
